Data reported in the domain aggregation screens of Martell et al. (2025).

Assay: soluble fraction after stress (log2 fold change); higher = more stays soluble; pooled small domains, quantitative proteomics
Settings: stress: 50 degC
Outline: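 Custom libraries of small protein domains were pooled and measured in a high-throughput format, with quantitative proteomics as the read-out. Each library was stressed at 50°C. The value is the log2 fold change in the amount of each protein that stays soluble after stress, used as a measure of aggregation propensity; higher values mean more of the protein stays soluble.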

| Sequence | soluble fraction (log2) |
| --- | --- |
| HMFDDLSTNLRDLAHNYIEKYSPSKQQLKVFLLKKYLMKFKGSKTKKEISEIIDKIISNLEENKYLNDEL | 0.0632 |
| HMAHSDEAWSVARRVARELDKILDGAGPRRTALVRAAAELRLSTRQIYNLLARYRADRTVTSLLPRR | -0.316 |
| HMIQTMVVTDLKNGTIFKENGHPFIVLKYEHIKVSRGSAQVRVKMKNLITGQVLEKSWQSTAHVDDT | -2.1 |
| HMNREENIQIGRDLLERELRKQGMDLQENLRQEVLLDGAKKLGFNNTDDLLAAIGDLKVTPAMFIGKIA | 0.0695 |
| HMQVLSESDVEDIKAISGGDKAYDNLMEWAGSKLSKQDAKDYDDVLATGNKTAITFAVKALMAQYENAN | -0.299 |
| HMYSDDNKSILNLIDNLFNKENIKIDINAKKLLSNYLGVDRLVTKGEIEKAILFAGTKKHLSIEDISAFLS | -0.0337 |
| HMVPEMIRDVISKSIRDMGVLPDHMQINERIALIQSLKKQQILGIKGAVAETARQLGISVPTVYRYMKKG | -0.362 |
| HMEPLIRTLEEQIAEKIKNYRKGTRVYDAEHVDRWISQLPEEERMVVLTETNRLLEQNYVDQAKLME | -0.107 |
| HMAHSWEAIRVKLQQIIDEEDKTKPLNDDQIKEKLAEAGIPNLARRTVAKYRKLLNIPTARFRKR | -0.313 |
| HMSTSEQVYTTDKVNVRREADTSSEKLGSLEKGTAISRTGTEGEWSVVNYGGVTGYIKTEFLTTEQPQ | 0.132 |
| HMDKSFYETFEKIGHGDFDKGLNHVWQHANDGNGTATLLLSKLFLEFGDLDNFEKYLNISAEQSNPVAMKI | -0.305 |
| HMSGTMYATAEVNVRSTYSSDGTIYGTLSKGTAVEITGTTDNGWVRVKYNGTTAYVYADYLSWKAP | -0.671 |
| HMKQPNFTVIETKILELLFQKDLSSREMQEILKISKDNLIFALQNLLEQEKIVLQTSNTYTVN | -1.15 |
| HMSGLGELTPRELEVLELMAQGLSNSQIAGRLFLSGAAVAKHVSSIFSKLGFEPGDENRRVRAILAFLNR | -0.422 |
| HMANYYEILGVKHDATEAEIKAAYKQAAKSAHPDAGGSNEKMQEVNAAWEVLGNAQKRAEYDARMA | 0.0756 |
| HMLEIRGFTVLLSDRGIVGIIEEIIQNPGQDLLRILSPEKREILVPLHSDLITGINKKKKTITMNLPDGL | -0.465 |
| HMDRWTPLVVAVLSRGSHRFGELRAAIGGITPKVLTDTLRSMERDGLITRDQAPGVPPRVDYALTPLGS | -1.12 |
| HMLEQEDMYGYQMIETLRERSEHSFDLKAGTLYPLLHALEQKGLITARDEASAAGRPRRYYHLTDAG | -0.144 |
| HMDAVDKDGNHMTFKKWSEQLQEAFHALELYDTTRAKQILSELVKFQVDSDITKSLKAIITNIDDMMA | -0.338 |
| HMDIMLLLYKNIKKRRLEIGMSQEELAQKTGYTSRSSIAKIEKGEVDLQLSKIKLFANALRVSQSELMG | -3.39 |
| HMTSKVTVLAVNGRITVSGKEQDETVSVYDTGGRLLYQGESDVINVPRKAMYIVTVSRKSYKVIV | -0.941 |
| HMLGERIRTLRKEIGMSVTELARRVKTSPSHISEIERGEKMPSLNLLVKIAKELKTSIDYLTGLVG | -0.0679 |
| HMENVQLRNFAIKATEAGIIKLSSDQRTFMWASNQKKLMTVPFDEHPYSAMAQFFKTDEGLAVFKSIEKKL | -1.12 |
| HMVQMNMLELQEEMQRDRSWIIKHLFQDEYFRRKIAKFSQFPINDSGKYLFHRKSMLKFLNDYAEEIVER | -2.56 |
| HMPPAPGHDLTEREREVLRLLVEGLSNQEISDRLVISQSTVKNHVSSVLSKLDAANRAEAVALALKNQL | 0.00346 |
| HMDKFKDVGARIREARKVQKLSQADLAERLQISTSHMSDIENGKKNIGLDIFMRLTEALQVSADWLL | -0.124 |
| HMTNVLSEQESKLLERMNKAGLNAEITVKKAAQILNLSESAARNVLNRLVGKGYLTVDTSRLPFLFQR | -0.0793 |
